# Experimental data from US20260242478A1 (published 2026).
# Where no end group is shown, it is not given here.
# B1: Phage-2766 (peptide)
# peptide: VEKWCTPAWMCSTS
# notes: Clone of the Peptide-180 optimisation library, tested as clonal phage supernatant (peptide fused to pIII of the bacteriophage)
# B2: Phage-2769 (peptide)
# peptide: SYKWCTPDWMCVAV
# notes: as for B1
# B3: Phage-2765 (peptide)
# peptide: HAIWCIPEWMCAFN
# modifications: cysteine pairing not given here; also: fused to pIII, displayed on bacteriophage
# notes: as for B1
# B4: Phage-2768 (peptide)
# peptide: AENWCTPRWMCEGI
# notes: as for B1
# B5: Phage-2767 (peptide)
# peptide: DVTWCIPPWMCMYN
# notes: as for B1
# B6: Phage-2770 (peptide)
# peptide: QIKWCIPMWMCEGE
# notes: as for B1
# B7: Phage-2841 (peptide)
# peptide: ESIRCTPAWMCVEM
# modifications: cysteine pairing not given here; also: fused to pIII of bacteriophage, linker and pIII sequence not given here
# notes: Clonal phage of the Peptide-180 optimization library, tested as crude phage supernatant; not shown: fused to pIII of the bacteriophage
# B8: Phage-2849 (peptide)
# peptide: VFPICKPSWMCVGM
# modifications: cysteine pairing not given here; also: fused to pIII of bacteriophage, linker and pIII sequence not given here
# notes: as for B7
# B9: Phage-2843 (peptide)
# peptide: MLPICKPDWMCAGF
# modifications: cysteine pairing not given here; also: fused to pIII of bacteriophage, linker and pIII sequence not given here
# notes: as for B7
# B10: Phage-2837 (peptide)
# peptide: VDRWCTPPWMCDWQ
# modifications: cysteine pairing not given here; also: fused to pIII of bacteriophage, linker and pIII sequence not given here
# notes: as for B7
# B11: Phage-2836 (peptide)
# peptide: DWKLCKPTWMCESL
# modifications: cysteine pairing not given here; also: fused to pIII of bacteriophage, linker and pIII sequence not given here
# notes: as for B7
# B12: Phage-2844 (peptide)
# peptide: VVAMCKPAWMCAGL
# modifications: cysteine pairing not given here; also: fused to pIII of bacteriophage, linker and pIII sequence not given here
# notes: as for B7
# B13: Phage-2848 (peptide)
# peptide: VMTVCKPAWMCTGF
# modifications: cysteine pairing not given here; also: fused to pIII of bacteriophage, linker and pIII sequence not given here
# notes: as for B7
# B14: Phage-2845 (peptide)
# peptide: WDMLCRPAWMCEGF
# modifications: cysteine pairing not given here; also: fused to pIII of bacteriophage, linker and pIII sequence not given here
# notes: as for B7
# B15: Phage-2839 (peptide)
# peptide: DSHWCMPVWMCMGL
# modifications: cysteine pairing not given here; also: fused to pIII of bacteriophage, linker and pIII sequence not given here
# notes: as for B7
# B16: Phage-2847 (peptide)
# peptide: WMPRCVPEWMCAGF
# modifications: cysteine pairing not given here; also: fused to pIII of bacteriophage, linker and pIII sequence not given here
# notes: as for B7
# B17: Phage-2846 (peptide)
# peptide: WEVRCVPEWMCVGF
# modifications: cysteine pairing not given here; also: fused to pIII of bacteriophage, linker and pIII sequence not given here
# notes: as for B7
# B18: Phage-2842 (peptide)
# peptide: PEVMCRPVWMCLGF
# modifications: cysteine pairing not given here; also: fused to phage pIII, linker not given here
# notes: as for B7
# B19: Phage-2835 (peptide)
# peptide: VAKLCTPAWMCSAM
# modifications: cysteine pairing not given here; also: fused to pIII of bacteriophage, linker and pIII sequence not given here
# notes: as for B7
# B20: Phage-2838 (peptide)
# peptide: HPKLCTPEWMCVIQ
# modifications: cysteine pairing not given here; also: fused to pIII of bacteriophage, linker and pIII sequence not given here
# notes: as for B7
# B21: Phage-2840 (peptide)
# peptide: EPQWCIPKWMCDHM
# modifications: cysteine pairing not given here; also: fused to pIII of bacteriophage, linker and pIII sequence not given here
# notes: as for B7
# Molecular target: T1, 006 PSMA Fab (biotinylated (site not stated))
# T1 construct: Biotinylated PSMA Fab captured on neutravidin coated plates in the panning ELISA; also called Anti-PSMA Fab
# Assay: clonal phage ELISA on captured PSMA Fab, wells pre-incubated with PSMA antigen as competitor
# Protocol: (§1) Clonal phage were harvested as crude supernatants and screened via standard ELISAs. […] Prior to the addition of clonal phage. wells were incubated with blocking buffer and PSMA antigen or blocking buffer alone. Without washing or aspirating, clonal phage supernatants were then added to the wells and incubated for a short time. Wells were then washed followed by detection of bound phage using a horse radish conjugated anti-M13 antibody.
row,Binder,phage binding ELISA signal in presence of PSMA antigen
1,B1,0.065
2,B2,0.0709
3,B3,0.124
4,B4,0.201
5,B5,0.0814
6,B6,0.0554

# Molecular target: T2, 006 PSMA Fab
# T2 construct: also called Anti-PSMA Fab
# Assay: clonal phage ELISA on captured PSMA Fab pre-incubated with PSMA antigen as competitor, anti-M13 HRP detection;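 further: crude clonal phage supernatants tested by ELISA, wells first treated with blocking buffer plus PSMA antigen, bound phage read out via HRP-linked anti-M13 antibody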
# Protocol: as §1
row,Binder,"Phage binding ELISA signal, Anti-PSMA Fab with PSMA antigen"
1,B7,0.0725
2,B8,0.174
3,B9,0.0942
4,B10,0.0626
5,B11,0.0664
6,B12,0.0731
7,B13,0.205
8,B14,0.157
9,B15,0.156
10,B16,0.334
11,B17,0.119
12,B18,0.112
13,B19,0.0638
14,B20,0.104
15,B21,0.0608

# Molecular target: T3, PSMA Fab
# T3 construct: also called Anti-PSMA Fab; 006 PSMA Fab
# Assay: phage ELISA; biotinylated PSMA Fab on neutravidin plate, blocking buffer alone, anti-M13 HRP detection
# Protocol: as §1
row,Binder,"Phage binding ELISA signal, Anti-PSMA Fab"
1,PGPSCVPSWMCVGF [Phage-3437],1.76
2,MPIYCVPEWMCQGL [Phage-3446],1.75
3,EIPYCVPQWMCVAM [Phage-3434],1.76
4,YGLRCEPAWMCQGF [Phage-3443],1.75
5,TPHACVPDWMCYGF [Phage-3444],1.75
6,SPIMCTPDWMCLGF [Phage-3439],1.75
7,ITPMCIPAWMCEGV [Phage-3445],1.75
8,VKPVCKPVWMCVGF [Phage-3436],1.76
9,ETMICKPEWMCTGF [Phage-3441],1.75
10,VTPRCIPEWMCAGF (cysteine pairing not given here; also: fused to pIII of bacteriophage) [Phage-3442],1.75
11,PAQMCIPQWMCNWL [Phage-3438],1.75
12,PVRVCIPQWMCIGF [Phage-3440],1.75
13,VLHMCVPLWMCHGL [Phage-3435],1.76

# Molecular target: T2, 006 PSMA Fab
# Assay: clonal phage ELISA on biotinylated PSMA Fab captured on neutravidin plates, anti-M13 HRP detection;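 further: crude clonal phage supernatants tested, before phage were added, wells were pretreated with PSMA antigen in blocking buffer or with blocking buffer only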
# Protocol: as §1
row,Binder,"Phage binding ELISA signal, Anti-PSMA Fab"
1,B7,0.421
2,B8,2.46
3,B9,2.49
4,B10,0.429
5,B11,0.43
6,B12,2.48
7,B13,2.47
8,B14,2.48
9,B15,0.423
10,B16,2.48
11,B17,2.48
12,B18,2.51
13,B19,0.431
14,B20,0.424
15,B21,0.423

# Molecular target: T1, 006 PSMA Fab
# Assay: clonal phage ELISA on biotinylated PSMA Fab captured on neutravidin plates, anti-M13-HRP detection;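 further: crude clonal phage supernatants added to wells preincubated with PSMA antigen or with blocking buffer only (no wash between), briefly incubated, then washed before detecting bound phage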
# Protocol: as §1
row,Binder,phage binding ELISA signal
1,B1,0.657
2,B2,0.651
3,B3,0.658
4,B4,0.655
5,B5,0.655
6,B6,0.651

# Molecular target: T3, PSMA Fab
# Assay: phage ELISA; biotinylated PSMA Fab on neutravidin plate, pre-incubated with PSMA antigen as competitor, anti-M13 HRP detection
# Protocol: as §1
row,Binder,"Phage binding ELISA signal, Anti-PSMA Fab in presence of PSMA"
1,PGPSCVPSWMCVGF [Phage-3437],0.074
2,MPIYCVPEWMCQGL [Phage-3446],0.0867
3,EIPYCVPQWMCVAM [Phage-3434],0.0788
4,YGLRCEPAWMCQGF [Phage-3443],0.0879
5,TPHACVPDWMCYGF [Phage-3444],0.0843
6,SPIMCTPDWMCLGF [Phage-3439],0.0708
7,ITPMCIPAWMCEGV [Phage-3445],0.0611
8,VKPVCKPVWMCVGF [Phage-3436],0.122
9,ETMICKPEWMCTGF [Phage-3441],0.0818
10,VTPRCIPEWMCAGF (cysteine pairing not given here; also: fused to pIII of bacteriophage) [Phage-3442],0.106
11,PAQMCIPQWMCNWL [Phage-3438],0.0635
12,PVRVCIPQWMCIGF [Phage-3440],0.13
13,VLHMCVPLWMCHGL [Phage-3435],0.133
